Test results taken from US20060286615A1.

Biological target: monoclonal anti-H2a antibody of hybridoma clone B9 (ECACC 04030801)
Experiment: competitive ELISA, antibody preincubated overnight with free specific peptide, then plate-bound peptide

- % inhibition of the reaction: 81%
Binder: CEKRRNATGEVA [H2 carboxyterminal peptide (SEQ ID NO:1, …)]
